# Laboratory results published in publication PMC12316933.
# Molecular target: CA09 N1 sNAp (stabilized recombinant N1 neuraminidase head of H1N1 A/California/07/2009) (Influenza A virus H1N1 A/California/07/2009)
# Assay: cryo-EM structure
substance,measurement,value
CA09 N1 sNAp (stabilized recombinant N1 neuraminidase head of H1N1 A/California/07/2009) (enzyme),stoichiometry N,4
